Legend:
[1] = target: T1, human Jagged-1 DSL-EGF3 fragment (J-1_(DSL-EGF3)), His-tagged, wild type (human, UniProt P78504 187-335); assay: pull-down
[2] = target: T1, human Jagged-1 DSL-EGF3 fragment …; assay: SPR

T1 sequence (P78504 187-335): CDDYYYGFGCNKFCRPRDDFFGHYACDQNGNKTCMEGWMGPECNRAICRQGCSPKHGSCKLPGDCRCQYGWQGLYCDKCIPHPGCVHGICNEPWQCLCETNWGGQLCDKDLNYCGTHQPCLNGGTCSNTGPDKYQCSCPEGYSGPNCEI

binding result [1] | binding result [2] | Binder
binds |  | human Notch-1 EGF domains 11-13 (N-1_(11-13)) with C-terminal BirA-tag, biotinylated (domain or fragment, biotin on the C-terminal tag) QDVDECSLGANPCEHAGKCINTLGSFECQCLQGYTGPRCEIDVNECVSNPCQNDATCLDQIGEFQCICMPGYEGVHCEVNTDECASSPCLHNGRCLDKINEFQCECPTGFTGHLCQ
 | binds | human Notch-1 EGF domains 11-13 (N-1_(11-13)) without the BirA-tag (domain or fragment) QDVDECSLGANPCEHAGKCINTLGSFECQCLQGYTGPRCEIDVNECVSNPCQNDATCLDQIGEFQCICMPGYEGVHCEVNTDECASSPCLHNGRCLDKINEFQCECPTGFTGHLCQ

— PMC2669539 (Nature structural & molecular biology, 2008)
